Positions count from the first letter of the chain named. In names and notes the source's numbering stands.

Assay [1] concerns the target T1, Histidine-tagged recombinant human FcγRI (CD64) (human, UniProt P12314 16-288).
T1 construct: bought; also called Sino Biological Cat. No. 12056-H08H
The assay can be described thus: SPR, culture supernatant, captured His-FcγRI.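 Further: biacore T200 SPR at 25 °C, anti-His capture, supernatants of HEK293 cells expressing IgG1 Fc variants injected 1 min, reference-subtracted response read 55 s after injection start.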 A general note: Surface plasmon resonance follows binding to a sensor surface in real time, without labels.

Assay [2] addresses T2, Histidine-tagged recombinant human FcγRI (CD64) (human, UniProt P12314 16-288, limits assumed).
T2 construct: bought
The assay can be described thus: SPR, His-FcγRI captured; Expt 3.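 Further: biacore T200 SPR at 25 °C, Fc-variant antibodies at 100 µg/mL flowed 1 min over anti-His-captured FcγRI, signal taken just before injection end minus a buffer blank cycle; antibody analyte injected at 100 µg/mL for 1 min.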

B1: anti-CD20 human IgG1 L234S/L235R/G236R (antibody)
heavy: QVQLQQPGAELVKPGASVKMSCKASGYTFTSYNMHWVKQTPGRGLEWIGAIYPGNGDTSYNQKFKGKATLTADKSSSTAYMQLSSLTSEDSAVYYCARSTYYGGDWYFNVWGAGTTVTVSSASTKGPSVFPLAPSSKSTSGGTAALGCLVKDYFPEPVTVSWNSGALTSGVHTFPAVLQSSGLYSLSSVVTVPSSSLGTQTYICNVNHKPSNTKVDKKVEPKSCDKTHTCPPCPAPESRRGPSVFLFPPKPKDTLMISRTPEVTCVVVDVSHEDPEVKFNWYVDGVEVHNAKTKPREEQYNSTYRVVSVLTVLHQDWLNGKEYKCKVSNKALPAPIEKTISKAKGQPREPQVYTLPPSRDELTKNQVSLTCLVKGFYPSDIAVEWESNGQPENNYKTTPPVLDSDGSFFLYSKLTVDKSRWQQGNVFSCSVMHEALHNHYTQKSLSLSPGK
light: QIVLSQSPAILSASPGEKVTMTCRASSSVSYIHWFQQKPGSSPKPWIYATSNLASGVPVRFSGSGSGTSYSLTISRVEAEDAATYYCQQWTSNPPTFGGGTKLEIKRTVAAPSVFIFPPSDEQLKSGTASVVCLLNNFYPREAKVQWKVDNALQSGNSQESVTEQDSKDSTYSLSSTLTLSKADYEKHKVYACEVTHQGLSSPVTKSFNRGEC
notes: also called 2-51; copies: 2 + 2
Take B1: the Mean binding response in assay [1] amounted to 11.1 RU.

B2: anti-CD20 human IgG1 L234A/L235A (LALA) (antibody)
heavy: not shown
light: B1 light
notes: also called 10.16; copies: 2 + 2
Turning to B2, the Mean binding response in assay [1] turned out to be 65 RU.

B3: anti-CD20 human IgG1 L234K/L235T/G236R (antibody)
heavy: B1 heavy with S238K, R239T
light: B1 light
notes: also called 1-90; 2-25; copies: 2 + 2
For B3, in assay [1], the Mean binding response turned out to be 15.8 RU.

B4: anti-CD20 human IgG1 L234A/L235S/G236R (antibody)
heavy: not shown
light: B1 light
notes: also called 1-14; 2-4; copies: 2 + 2
Take B4: the Mean binding response in assay [1] was found to be 32.1 RU.

B5: anti-CD20 human IgG1 L234K/L235S/G236R (antibody)
heavy: B1 heavy with S238K, R239S
light: B1 light
notes: also called 1-89; 2-24; copies: 2 + 2
As to B5, the Mean binding response in assay [1] was 16.1 RU.

B6: anti-CD20 human IgG1 L234T/L235N/G236R (antibody)
heavy: B1 heavy with S238T, R239N
light: B1 light
notes: copies: 2 + 2
Turning to B6, in assay [1], the Mean binding response was 22.4 RU.

B7: anti-CD20 human IgG1 L234D/L235S/G236R (antibody)
heavy: B1 heavy with S238D, R239S
light: B1 light
notes: also called 1-29; 2-10; copies: 2 + 2
B7: in assay [1], the Mean binding response turned out to be 26.3 RU.

B8: anti-CD20 human IgG1 L234T/L235R/G236R (antibody)
heavy: B1 heavy with S238T
light: B1 light
notes: also called 2-61; copies: 2 + 2
For B8, the Mean binding response in assay [1] came out at 13.6 RU.

B9: anti-CD20 human IgG1 L234T/L235G/G236R (antibody)
heavy: B1 heavy with S238T, R239G
light: B1 light
notes: copies: 2 + 2
Turning to B9, the Mean binding response in assay [1] turned out to be 26.9 RU.

B10: anti-CD20 human IgG1 L234Q/L235T/G236R (antibody)
heavy: B1 heavy with S238Q, R239T
light: B1 light
notes: also called 1-120
In the case of B10, in assay [2], the “Corrected response (RU)” value turned out to be 1.4 RU.

B11: anti-CD20 human IgG1 L234Q/L235D/G236R (antibody)
heavy: B1 heavy with S238Q, R239D
light: B1 light
notes: also called 2-28; copies: 2 + 2
Take B11: the Mean binding response in assay [1] came to 18.9 RU.

B12: anti-CD20 human IgG1 L234T/L235E/G236R (antibody)
heavy: B1 heavy with S238T, R239E
light: B1 light
notes: copies: 2 + 2
On to B12, for which the Mean binding response in assay [1] was determined as 24 RU.

B13: anti-CD20 human IgG1 L234R/L235D/G236R (antibody)
heavy: B1 heavy with S238R, R239D
light: B1 light
notes: copies: 2 + 2
Regarding B13, in assay [1], the Mean binding response is 11.1 RU.

B14: anti-CD20 human IgG1 L234R/L235R/G236R (antibody)
heavy: B1 heavy with S238R
light: B1 light
notes: also called 2-43; copies: 2 + 2
For the molecule B14, the Mean binding response in assay [1] was found to be 17.2 RU.

B15: anti-CD20 human IgG1 L234S/L235S/G236R (antibody)
heavy: B1 heavy with R239S
light: B1 light
notes: also called 1-149; copies: 2 + 2
Consider B15, for which the Mean binding response in assay [1] amounted to 25.6 RU.

B16: anti-CD20 human IgG1 L234Q/L235R/G236R (antibody)
heavy: B1 heavy with S238Q
light: B1 light
notes: also called 2-32; copies: 2 + 2
Turning to B16, in assay [1], the Mean binding response came to 20.1 RU.

B17: anti-CD20 human IgG1 L234T/L235K/G236R (antibody)
heavy: B1 heavy with S238T, R239K
light: B1 light
notes: also called 2-58; copies: 2 + 2
With B17, the Mean binding response in assay [1] is 6.7 RU.

B18: anti-CD20 human IgG1 L234T/L235A/G236R (antibody)
heavy: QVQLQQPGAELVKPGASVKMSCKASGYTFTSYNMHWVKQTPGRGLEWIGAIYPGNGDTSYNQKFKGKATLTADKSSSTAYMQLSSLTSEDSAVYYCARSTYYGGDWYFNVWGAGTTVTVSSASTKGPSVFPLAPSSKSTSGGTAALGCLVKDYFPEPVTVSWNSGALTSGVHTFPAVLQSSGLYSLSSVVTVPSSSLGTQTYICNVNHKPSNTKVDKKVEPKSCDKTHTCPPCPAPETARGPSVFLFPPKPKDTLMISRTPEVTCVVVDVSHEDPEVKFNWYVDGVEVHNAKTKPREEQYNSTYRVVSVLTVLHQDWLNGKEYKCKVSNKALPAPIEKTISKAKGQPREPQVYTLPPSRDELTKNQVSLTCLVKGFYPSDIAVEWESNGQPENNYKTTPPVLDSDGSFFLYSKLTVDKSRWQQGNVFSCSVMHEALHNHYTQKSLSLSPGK
light: B1 light
notes: also called 1-152; 2-54; copies: 2 + 2
B18: the Mean binding response in assay [1] was found to be 11.8 RU.

B19: anti-CD20 human IgG1 L234K/L235V/G236R (antibody)
heavy: B1 heavy with S238K, R239V
light: B1 light
notes: also called 1-91; 2-26; copies: 2 + 2
Regarding B19, the Mean binding response in assay [1] is 12.8 RU.

B20: anti-CD20 human IgG1 L234R/L235H/G236R (antibody)
heavy: B1 heavy with S238R, R239H
light: B1 light
notes: also called 2-38; copies: 2 + 2
Take B20: in assay [1], the Mean binding response turned out to be 14.3 RU.

B21: anti-CD20 human IgG1 L234S/L235G/G236R (antibody)
heavy: B1 heavy with R239G
light: B1 light
notes: also called 1-140; 2-47; copies: 2 + 2
As for B21, the Mean binding response in assay [1] worked out at 11.2 RU.

B22: anti-CD20 human IgG1 L234R/L235I/G236R (antibody)
heavy: B1 heavy with S238R, R239I
light: B1 light
notes: also called 2-39; copies: 2 + 2
Turning to B22, the Mean binding response in assay [1] came out at 10.7 RU.

B23: anti-CD20 human IgG1 L234D/L235K/G236R (antibody)
heavy: B1 heavy with S238D, R239K
light: B1 light
notes: also called 1-23; 2-7; copies: 2 + 2
In the case of B23, the Mean binding response in assay [1] is 20.9 RU.

B24: anti-CD20 human IgG1 L234T/L235S/G236R (antibody)
heavy: B1 heavy with S238T, R239S
light: B1 light
notes: also called 2-62; copies: 2 + 2
Consider B24, for which the Mean binding response in assay [1] came to 25.4 RU.

B25: anti-CD20 human IgG1 L234R/L235K/G236R (antibody)
heavy: B1 heavy with S238R, R239K
light: B1 light
notes: also called 2-40; copies: 2 + 2
As for B25, the Mean binding response in assay [1] was determined as 19.2 RU.

B26: anti-CD20 human IgG1 L235V/F243L/R292P/Y300L/P396L (antibody)
heavy: B1 heavy with S238L, R239V, R240G, F247L, R296P, Y304L, P400L
light: B1 light
notes: also called 2-72
Regarding B26, in assay [2], the “Corrected response (RU)” value was determined as 2510 RU.

B27: anti-CD20 human IgG1 L234T/L235M/G236R (antibody)
heavy: B1 heavy with S238T, R239M
light: B1 light
notes: also called 1-160; copies: 2 + 2
On to B27, for which the Mean binding response in assay [1] came to 31.6 RU.

B28: anti-CD20 human IgG1 L234Q/L235A/G236R (antibody)
heavy: not shown
light: B1 light
notes: also called 2-27; copies: 2 + 2
As to B28, the Mean binding response in assay [1] is 13.4 RU.

B29: anti-CD20 human IgG1 L234K/L235R/G236R (antibody)
heavy: B1 heavy with S238K
light: B1 light
notes: also called 1-88; 2-23; copies: 2 + 2
Regarding B29, the Mean binding response in assay [1] was determined as 13.9 RU.

Source of the values: patent US20230235013A1 (MABSOLVE, published 2023).
